From US7708999B2, “Remedies for arthritis” (Kyowa Hakko Kirin Co., Ltd., priority 2001, dated 2010)
Substitutions are numbered along the chain they refer to.

T1: compound 1 as a partial peptide of FGF-8 (Homo sapiens, UniProt P55075)
T1 construct: 17; made in house; host or cells: chemical synthesis
T1 sequence (P55075 with tags, fused parts or gaps isoform P55075-3 limits assumed): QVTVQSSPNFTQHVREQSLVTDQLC

T2: FGF-8 (Homo sapiens, UniProt P55075)
T2 construct: purchased R & D
T2 sequence (P55075 23-215 isoform P55075-3 limits assumed): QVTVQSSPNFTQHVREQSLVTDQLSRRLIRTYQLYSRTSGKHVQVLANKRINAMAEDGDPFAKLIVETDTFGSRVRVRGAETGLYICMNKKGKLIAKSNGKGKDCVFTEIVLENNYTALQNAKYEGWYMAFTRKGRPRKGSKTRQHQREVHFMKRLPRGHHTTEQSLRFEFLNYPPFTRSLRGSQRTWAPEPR

B1: HV0LV3-1/CHO: CHO/DG44 cell-derived anti-FGF-8 neutralizing CDR-grafted antibody, VH HV.0, VL LV.3-1 (SEQ ID NO. 44) (antibody, V domains shown)
VH: QVQLVQSGAEVKKPGASVKVSCKASGYTFTDYYLNWVRQAPGQGLEWMGEIDPGSDSIYYNENLEGRVTITADTSTSTAYMELSSLRSEDTAVYYCARYGYSRYDVRFVYWGQGTLVTVSS
VL: DVVMTQSPLSLPVTPGEPASISCRSSQSLVHSNGRTYLEWYLQKPGQSPQVLIYKVSNRISGVPDRFSGSGSGTDFTLKISRVEAEDVGVYFCFQGSHVPYTFGQGTKVEIK
B2: HV0LV4-3/CHO: CHO/DG44 cell-derived anti-FGF-8 neutralizing CDR-grafted antibody, VH HV.0, VL LV.4-3 (SEQ ID NO. 50) (antibody, V domains shown)
VH: B1 VH
VL: B1 VL with V2I, T14S, P15L
B3: HV0LV3-3/CHO: CHO/DG44 cell-derived anti-FGF-8 neutralizing CDR-grafted antibody, VH HV.0, VL LV.3-3 (SEQ ID NO. 51) (antibody, V domains shown)
VH: B1 VH
VL: B1 VL with V2I, T14S, P15L, F92Y
B4: HV0LV2-1/CHO: CHO/DG44 cell-derived anti-FGF-8 neutralizing CDR-grafted antibody, VH HV.0, VL LV.2-1 (SEQ ID NO. 46) (antibody, V domains shown)
VH: B1 VH
VL: B1 VL with V2I
B5: HV0LV4-1/CHO: CHO/DG44 cell-derived anti-FGF-8 neutralizing CDR-grafted antibody, VH HV.0, VL LV.4-1 (SEQ ID NO. 42) (antibody, V domains shown)
VH: B1 VH
VL: B1 VL with Q50K

These molecules were tested against T1, compound 1 as a partial peptide of FGF-8 (assay: FGF-8 binding activity by BIAcore 2000, immobilized biotin-labeled compound 1). Conditions: antibody 16.7 μg/mL; FGF-8 peptide immobilized 35 RU.
Method: In order to examine the FGF-8 binding activity of the anti-FGF-8 neutralizing CDR-grafted antibodies obtained in 5. of Reference Example 3, the FGF-8 binding activity of the various anti-FGF-8 neutralizing CDR-grafted antibodies was measured and compared through BIAcore 2000 using compound 1 as a partial peptide of FGF-8 with the C terminal labeled with biotin in the following manner. The anti-FGF-8 neutralizing chimeric antibody KM3034 derived from CHO/DG44 cells obtained in 3. (1) of Reference Example 1 was used as a positive control.
HBS-EP was used as a sample diluent and a buffer during measurement. First, Sensor Chip SA (manufactured by BIACORE) was installed, and 5 μL of compound 1 labeled with biotin which had been adjusted to 0.05 μg/mL was added at a flow rate of 5 μL/min. Then, 5 μL of a 10 mmol/L glycine-hydrochloride solution (pH 1.5) was added twice continuously to wash the tip surface. The immobilization amount of the FGF-8 peptide was 35 RU.
60 μL of each of the antibody solutions was added to an FGF-8 peptide immobilized flow cell at a flow rate of 20 μL/min, and the dissociation reaction was then monitored for 3 minutes. After the dissociation reaction, 20 μL of 10 mmol/L glycine-hydrochloride solution (pH 1.5) was added twice continuously to regenerate the chip surface. This cycle was performed on the antibody solution at various concentrations (from 50 to 1.85 μg/mL) to obtain sensor grams at various concentrations. The sensor grams of the respective antibodies were converted to sensor grams of specific reactions by deduceing a sensor gram obtained using the chimeric antibody KM871 to GD3 as a negative control.

Molecule | binding reaction [resonance signal (RU)]
B1 | the higher binding reaction
B2 | the higher binding reaction than that of the HV0LV3-1/CHO and similar to that of the HV0LV6/CHO
B3 | lower than that of the HV0LV3-1
B4 | the higher binding reaction
B5 | the higher binding reaction

What follows are molecules tested against T2, FGF-8 (assay: FGF-8 neutralizing activity: FGF-8-dependent growth of mouse breast cancer cell line SC-3). Conditions: SC-3 cells, FGF-8 50 ng/mL, WST-1.
Format: cell-based
Method: The FGF-8 neutralizing activity of the purified anti-FGF-8 neutralizing chimeric antibody was evaluated by measured the following FGF-8-dependent growth inhibitory effect of mouse breast cancer cell line SC-3 (Tanaka A. et al., Proc. Natl. Acad. Sci. USA, 89, 8928-8932, 1992) described below. That is, SC-3 cells were suspended at a concentration of 3.0×10^4 cells/mL in DMEM:Ham's F12 (1:1) medium [a mixed medium of DMEM medium and Ham's F12 medium (manufactured by Invitrogen) at a ratio of 1:1] containing activated charcoal-treated FBS at a concentration of 2%. The suspension was inoculated on a 96-well plate in an amount of 150 μL (4.5×10^3 cells)/well. After the culturing in a 5% CO2 incubator at 37° C. for 18 hours, the medium was replaced with 100 μL/well of a test medium. The test medium was produced by dissolving 50 ng/mL of FGF-8 (manufactured by R & D) and the anti-FGF-8 neutralizing chimeric antibody at each dilute concentration in DMEM:Ham's F12 (1:1) medium containing 0.1% BSA. The chimeric antibody KM2760 to human chemokine CCR4 described in WO 01/64754 was used as an antibody of a negative control. After the culturing in a 5% CO2 incubator at 37° C. for 48 hours, the medium was replaced with a freshly prepared test medium, and the culturing was further performed for 48 hours. WST-1 Reagent (manufactured by Roche) was added in an amount of 10 μL/well, and the mixture was culturing in a 5% CO2 incubator at 37° C. for 1 hour while being gently stirred. Then, absorbance (OD450,650) was measured. In FIG. 21, the abscissa represents a concentration of an antibody added, and the ordinate represents relative growth (%) to growth when adding 50 ng/mL of FGF-8 alone. The relative growth (%) to growth when adding 50 ng/mL of FGF-8 alone was calculated by the following formula. Relative growth (%) to growth when adding FGF-8={(Absorbance when adding FGF-8 and antibody−Absorbance when not adding FGF-8 and antibody)/(Absorbance when adding FGF-8 alone−Absorbance when not adding FGF-8 and antibody)}×100

Molecule | FGF-8 neutralizing activity (SC-3 cell growth inhibitory activity)
B1 | the next high FGF-8 neutralizing activity
B2 | approximately half that of the chimeric antibody KM3034
B3 | approximately half that of the chimeric antibody KM3034
B4 | the lowest neutralizing activity
B5 | slightly lower FGF-8 neutralizing activity than the HV0LV3-1/CHO
